# B1: Trastuzumab HCDR3 variant ARWEGYGSYEFAY (Fab, V domains shown)
# VH: EVQLVESGGGLVQPGGSLRLSCAASGFNIKDTYIHWVRQAPGKGLEWVARIYPTNGYTRYADSVKGRFTISADTSKNTAYLQMNSLRAEDTAVYYCARWEGYGSYEFAYWGQGTLVTVSS
# VL: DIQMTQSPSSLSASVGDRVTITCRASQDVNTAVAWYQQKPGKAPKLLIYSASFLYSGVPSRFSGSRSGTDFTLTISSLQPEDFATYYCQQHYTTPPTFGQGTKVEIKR
# B2: Trastuzumab HCDR3 variant ARWWYGGRNYFDI (Fab, V domains shown)
# VH: EVQLVESGGGLVQPGGSLRLSCAASGFNIKDTYIHWVRQAPGKGLEWVARIYPTNGYTRYADSVKGRFTISADTSKNTAYLQMNSLRAEDTAVYYCARWWYGGRNYFDIWGQGTLVTVSS
# VL: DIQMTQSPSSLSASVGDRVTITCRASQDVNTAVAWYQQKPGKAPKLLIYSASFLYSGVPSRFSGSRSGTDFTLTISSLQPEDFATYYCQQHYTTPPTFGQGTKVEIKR
# B3: Trastuzumab HCDR3 variant ARYGGYGNYWFDT (Fab, V domains shown)
# VH: EVQLVESGGGLVQPGGSLRLSCAASGFNIKDTYIHWVRQAPGKGLEWVARIYPTNGYTRYADSVKGRFTISADTSKNTAYLQMNSLRAEDTAVYYCARYGGYGNYWFDTWGQGTLVTVSS
# VL: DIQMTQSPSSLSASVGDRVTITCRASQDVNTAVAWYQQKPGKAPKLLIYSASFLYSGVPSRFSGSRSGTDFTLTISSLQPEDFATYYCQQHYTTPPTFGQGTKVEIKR
# B4: Trastuzumab HCDR3 variant ARWGYGYYYSFDY (Fab, V domains shown)
# VH: EVQLVESGGGLVQPGGSLRLSCAASGFNIKDTYIHWVRQAPGKGLEWVARIYPTNGYTRYADSVKGRFTISADTSKNTAYLQMNSLRAEDTAVYYCARWGYGYYYSFDYWGQGTLVTVSS
# VL: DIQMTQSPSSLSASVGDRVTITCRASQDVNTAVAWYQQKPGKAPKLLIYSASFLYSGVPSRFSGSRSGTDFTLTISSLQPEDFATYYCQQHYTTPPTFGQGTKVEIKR
# B5: Trastuzumab HCDR3 variant ARYGLNHYYVYPY (Fab, V domains shown)
# VH: EVQLVESGGGLVQPGGSLRLSCAASGFNIKDTYIHWVRQAPGKGLEWVARIYPTNGYTRYADSVKGRFTISADTSKNTAYLQMNSLRAEDTAVYYCARYGLNHYYVYPYWGQGTLVTVSS
# VL: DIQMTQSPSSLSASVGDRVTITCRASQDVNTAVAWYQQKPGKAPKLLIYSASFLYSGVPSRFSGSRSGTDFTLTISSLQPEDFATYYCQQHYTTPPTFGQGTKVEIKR
# B6: Trastuzumab HCDR3 variant ARWWTPANYPFLY (Fab, V domains shown)
# VH: EVQLVESGGGLVQPGGSLRLSCAASGFNIKDTYIHWVRQAPGKGLEWVARIYPTNGYTRYADSVKGRFTISADTSKNTAYLQMNSLRAEDTAVYYCARWWTPANYPFLYWGQGTLVTVSS
# VL: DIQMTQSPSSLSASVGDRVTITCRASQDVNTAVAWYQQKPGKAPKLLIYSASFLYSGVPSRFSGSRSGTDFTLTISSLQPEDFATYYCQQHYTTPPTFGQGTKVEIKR
# B7: Trastuzumab HCDR3 variant ARWVSGARYYMDV (Fab, V domains shown)
# VH: EVQLVESGGGLVQPGGSLRLSCAASGFNIKDTYIHWVRQAPGKGLEWVARIYPTNGYTRYADSVKGRFTISADTSKNTAYLQMNSLRAEDTAVYYCARWVSGARYYMDVWGQGTLVTVSS
# VL: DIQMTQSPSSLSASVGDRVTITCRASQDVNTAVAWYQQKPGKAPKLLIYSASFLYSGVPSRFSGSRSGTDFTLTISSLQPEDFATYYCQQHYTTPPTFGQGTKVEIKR
# B8: Trastuzumab HCDR3 variant ARYGGYGYYWFDY (Fab, V domains shown)
# VH: EVQLVESGGGLVQPGGSLRLSCAASGFNIKDTYIHWVRQAPGKGLEWVARIYPTNGYTRYADSVKGRFTISADTSKNTAYLQMNSLRAEDTAVYYCARYGGYGYYWFDYWGQGTLVTVSS
# VL: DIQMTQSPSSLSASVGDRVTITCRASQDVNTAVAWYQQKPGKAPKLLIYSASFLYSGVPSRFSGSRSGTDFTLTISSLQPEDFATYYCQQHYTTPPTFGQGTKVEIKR
# B9: Trastuzumab HCDR3 variant ARYGARSGYAYEY (Fab, V domains shown)
# VH: EVQLVESGGGLVQPGGSLRLSCAASGFNIKDTYIHWVRQAPGKGLEWVARIYPTNGYTRYADSVKGRFTISADTSKNTAYLQMNSLRAEDTAVYYCARYGARSGYAYEYWGQGTLVTVSS
# VL: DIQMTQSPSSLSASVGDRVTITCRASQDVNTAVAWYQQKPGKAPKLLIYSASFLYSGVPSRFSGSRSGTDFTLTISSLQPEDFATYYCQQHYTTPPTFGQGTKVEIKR
# B10: Trastuzumab HCDR3 variant ARWGSYGYYYFDY (Fab, V domains shown)
# VH: EVQLVESGGGLVQPGGSLRLSCAASGFNIKDTYIHWVRQAPGKGLEWVARIYPTNGYTRYADSVKGRFTISADTSKNTAYLQMNSLRAEDTAVYYCARWGSYGYYYFDYWGQGTLVTVSS
# VL: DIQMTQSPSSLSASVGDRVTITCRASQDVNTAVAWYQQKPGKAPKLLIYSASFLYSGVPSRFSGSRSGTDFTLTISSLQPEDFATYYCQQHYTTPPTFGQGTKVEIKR
# B11: Trastuzumab HCDR3 variant ARWEQASVGSFGY (Fab, V domains shown)
# VH: EVQLVESGGGLVQPGGSLRLSCAASGFNIKDTYIHWVRQAPGKGLEWVARIYPTNGYTRYADSVKGRFTISADTSKNTAYLQMNSLRAEDTAVYYCARWEQASVGSFGYWGQGTLVTVSS
# VL: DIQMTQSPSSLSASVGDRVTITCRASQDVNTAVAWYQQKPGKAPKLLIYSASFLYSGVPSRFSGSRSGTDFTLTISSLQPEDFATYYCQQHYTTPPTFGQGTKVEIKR
# B12: Trastuzumab HCDR3 variant ARYGDSYYYYFDY (Fab, V domains shown)
# VH: EVQLVESGGGLVQPGGSLRLSCAASGFNIKDTYIHWVRQAPGKGLEWVARIYPTNGYTRYADSVKGRFTISADTSKNTAYLQMNSLRAEDTAVYYCARYGDSYYYYFDYWGQGTLVTVSS
# VL: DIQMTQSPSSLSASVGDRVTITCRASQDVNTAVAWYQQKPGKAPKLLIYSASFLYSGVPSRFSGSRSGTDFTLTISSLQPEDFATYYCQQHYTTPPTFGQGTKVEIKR
# B13: Trastuzumab HCDR3 variant ARWGTYTYGYFDY (Fab, V domains shown)
# VH: EVQLVESGGGLVQPGGSLRLSCAASGFNIKDTYIHWVRQAPGKGLEWVARIYPTNGYTRYADSVKGRFTISADTSKNTAYLQMNSLRAEDTAVYYCARWGTYTYGYFDYWGQGTLVTVSS
# VL: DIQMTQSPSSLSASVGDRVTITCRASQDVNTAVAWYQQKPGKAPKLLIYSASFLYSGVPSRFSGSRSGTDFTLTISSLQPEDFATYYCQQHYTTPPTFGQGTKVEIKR
# B14: Trastuzumab HCDR3 variant ARYGDAFIMSFGV (Fab, V domains shown)
# VH: EVQLVESGGGLVQPGGSLRLSCAASGFNIKDTYIHWVRQAPGKGLEWVARIYPTNGYTRYADSVKGRFTISADTSKNTAYLQMNSLRAEDTAVYYCARYGDAFIMSFGVWGQGTLVTVSS
# VL: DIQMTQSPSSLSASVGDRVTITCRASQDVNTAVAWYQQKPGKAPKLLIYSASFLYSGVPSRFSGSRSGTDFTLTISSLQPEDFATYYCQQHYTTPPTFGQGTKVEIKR
# B15: Trastuzumab HCDR3 variant ARYGGGYYYYFDV (Fab, V domains shown)
# VH: EVQLVESGGGLVQPGGSLRLSCAASGFNIKDTYIHWVRQAPGKGLEWVARIYPTNGYTRYADSVKGRFTISADTSKNTAYLQMNSLRAEDTAVYYCARYGGGYYYYFDVWGQGTLVTVSS
# VL: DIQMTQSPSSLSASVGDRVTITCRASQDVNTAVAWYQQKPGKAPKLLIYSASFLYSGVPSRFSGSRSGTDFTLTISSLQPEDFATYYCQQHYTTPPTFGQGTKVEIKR
# B16: Trastuzumab HCDR3 variant ARYFYDHYYYFDV (Fab, V domains shown)
# VH: EVQLVESGGGLVQPGGSLRLSCAASGFNIKDTYIHWVRQAPGKGLEWVARIYPTNGYTRYADSVKGRFTISADTSKNTAYLQMNSLRAEDTAVYYCARYFYDHYYYFDVWGQGTLVTVSS
# VL: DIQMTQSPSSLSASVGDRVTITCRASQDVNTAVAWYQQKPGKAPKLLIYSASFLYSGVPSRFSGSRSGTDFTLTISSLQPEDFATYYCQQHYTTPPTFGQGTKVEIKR
# B17: Trastuzumab HCDR3 variant ARYGDADFYAFDP (Fab, V domains shown)
# VH: EVQLVESGGGLVQPGGSLRLSCAASGFNIKDTYIHWVRQAPGKGLEWVARIYPTNGYTRYADSVKGRFTISADTSKNTAYLQMNSLRAEDTAVYYCARYGDADFYAFDPWGQGTLVTVSS
# VL: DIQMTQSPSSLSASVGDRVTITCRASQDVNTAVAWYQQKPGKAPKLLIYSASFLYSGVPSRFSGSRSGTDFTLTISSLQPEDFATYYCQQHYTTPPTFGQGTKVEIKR
# B18: Trastuzumab HCDR3 variant ARWPPYYWWAFDY (Fab, V domains shown)
# VH: EVQLVESGGGLVQPGGSLRLSCAASGFNIKDTYIHWVRQAPGKGLEWVARIYPTNGYTRYADSVKGRFTISADTSKNTAYLQMNSLRAEDTAVYYCARWPPYYWWAFDYWGQGTLVTVSS
# VL: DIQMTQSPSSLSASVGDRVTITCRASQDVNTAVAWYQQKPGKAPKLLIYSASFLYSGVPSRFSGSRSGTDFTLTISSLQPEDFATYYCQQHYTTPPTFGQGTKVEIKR
# B19: Trastuzumab HCDR3 variant ARWERYGYYVLDV (Fab, V domains shown)
# VH: EVQLVESGGGLVQPGGSLRLSCAASGFNIKDTYIHWVRQAPGKGLEWVARIYPTNGYTRYADSVKGRFTISADTSKNTAYLQMNSLRAEDTAVYYCARWERYGYYVLDVWGQGTLVTVSS
# VL: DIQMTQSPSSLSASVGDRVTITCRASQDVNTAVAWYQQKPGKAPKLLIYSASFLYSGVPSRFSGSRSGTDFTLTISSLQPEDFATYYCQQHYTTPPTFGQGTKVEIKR
# B20: Trastuzumab HCDR3 variant ARWGSEAFYWFDY (Fab, V domains shown)
# VH: EVQLVESGGGLVQPGGSLRLSCAASGFNIKDTYIHWVRQAPGKGLEWVARIYPTNGYTRYADSVKGRFTISADTSKNTAYLQMNSLRAEDTAVYYCARWGSEAFYWFDYWGQGTLVTVSS
# VL: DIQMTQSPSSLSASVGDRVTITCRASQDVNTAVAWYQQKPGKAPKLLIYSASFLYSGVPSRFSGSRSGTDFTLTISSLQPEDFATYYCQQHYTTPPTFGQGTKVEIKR
# B21: Trastuzumab HCDR3 variant ARYGGLGGYTLAY (Fab, V domains shown)
# VH: EVQLVESGGGLVQPGGSLRLSCAASGFNIKDTYIHWVRQAPGKGLEWVARIYPTNGYTRYADSVKGRFTISADTSKNTAYLQMNSLRAEDTAVYYCARYGGLGGYTLAYWGQGTLVTVSS
# VL: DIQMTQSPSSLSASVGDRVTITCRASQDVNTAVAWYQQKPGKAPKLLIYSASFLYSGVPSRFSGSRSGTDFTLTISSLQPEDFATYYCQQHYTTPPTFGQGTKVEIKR
# B22: Trastuzumab HCDR3 variant ARYDYYGYYYFDY (Fab, V domains shown)
# VH: EVQLVESGGGLVQPGGSLRLSCAASGFNIKDTYIHWVRQAPGKGLEWVARIYPTNGYTRYADSVKGRFTISADTSKNTAYLQMNSLRAEDTAVYYCARYDYYGYYYFDYWGQGTLVTVSS
# VL: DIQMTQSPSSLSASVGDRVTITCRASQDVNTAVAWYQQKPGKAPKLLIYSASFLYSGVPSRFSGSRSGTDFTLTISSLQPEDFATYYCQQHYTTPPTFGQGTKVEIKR
# B23: Trastuzumab HCDR3 variant ARYGLYGSYYFRY (Fab, V domains shown)
# VH: EVQLVESGGGLVQPGGSLRLSCAASGFNIKDTYIHWVRQAPGKGLEWVARIYPTNGYTRYADSVKGRFTISADTSKNTAYLQMNSLRAEDTAVYYCARYGLYGSYYFRYWGQGTLVTVSS
# VL: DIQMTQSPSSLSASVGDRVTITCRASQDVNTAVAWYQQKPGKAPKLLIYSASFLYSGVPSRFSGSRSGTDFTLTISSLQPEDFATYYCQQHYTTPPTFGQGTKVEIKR
# B24: Trastuzumab HCDR3 variant ARWLRGLGYYWDY (Fab, V domains shown)
# VH: EVQLVESGGGLVQPGGSLRLSCAASGFNIKDTYIHWVRQAPGKGLEWVARIYPTNGYTRYADSVKGRFTISADTSKNTAYLQMNSLRAEDTAVYYCARWLRGLGYYWDYWGQGTLVTVSS
# VL: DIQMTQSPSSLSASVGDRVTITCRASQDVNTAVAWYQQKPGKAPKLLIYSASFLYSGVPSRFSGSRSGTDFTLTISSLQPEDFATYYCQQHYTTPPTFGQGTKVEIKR
# B25: Trastuzumab HCDR3 variant ARWQGRSGYYMDY (Fab, V domains shown)
# VH: EVQLVESGGGLVQPGGSLRLSCAASGFNIKDTYIHWVRQAPGKGLEWVARIYPTNGYTRYADSVKGRFTISADTSKNTAYLQMNSLRAEDTAVYYCARWQGRSGYYMDYWGQGTLVTVSS
# VL: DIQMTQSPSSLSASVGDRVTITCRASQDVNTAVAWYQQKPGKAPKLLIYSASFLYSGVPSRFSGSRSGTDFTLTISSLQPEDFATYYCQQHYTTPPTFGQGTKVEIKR
# B26: Trastuzumab HCDR3 variant ARYGDGTYYFFAH (Fab, V domains shown)
# VH: EVQLVESGGGLVQPGGSLRLSCAASGFNIKDTYIHWVRQAPGKGLEWVARIYPTNGYTRYADSVKGRFTISADTSKNTAYLQMNSLRAEDTAVYYCARYGDGTYYFFAHWGQGTLVTVSS
# VL: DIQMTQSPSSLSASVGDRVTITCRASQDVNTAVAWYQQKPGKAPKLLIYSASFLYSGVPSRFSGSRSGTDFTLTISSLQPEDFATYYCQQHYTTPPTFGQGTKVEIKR
# B27: Trastuzumab HCDR3 variant ARYGAYSSYYFGY (Fab, V domains shown)
# VH: EVQLVESGGGLVQPGGSLRLSCAASGFNIKDTYIHWVRQAPGKGLEWVARIYPTNGYTRYADSVKGRFTISADTSKNTAYLQMNSLRAEDTAVYYCARYGAYSSYYFGYWGQGTLVTVSS
# VL: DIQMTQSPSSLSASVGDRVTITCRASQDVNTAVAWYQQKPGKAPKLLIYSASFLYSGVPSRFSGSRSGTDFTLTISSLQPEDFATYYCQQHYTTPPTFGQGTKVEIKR
# B28: Trastuzumab HCDR3 variant ARWYGLGSYGLTY (Fab, V domains shown)
# VH: EVQLVESGGGLVQPGGSLRLSCAASGFNIKDTYIHWVRQAPGKGLEWVARIYPTNGYTRYADSVKGRFTISADTSKNTAYLQMNSLRAEDTAVYYCARWYGLGSYGLTYWGQGTLVTVSS
# VL: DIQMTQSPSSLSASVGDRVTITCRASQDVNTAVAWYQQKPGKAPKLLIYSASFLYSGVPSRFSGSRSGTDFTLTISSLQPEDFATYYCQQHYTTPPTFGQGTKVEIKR
# B29: Trastuzumab HCDR3 variant ARWRYGGAYQFAL (Fab, V domains shown)
# VH: EVQLVESGGGLVQPGGSLRLSCAASGFNIKDTYIHWVRQAPGKGLEWVARIYPTNGYTRYADSVKGRFTISADTSKNTAYLQMNSLRAEDTAVYYCARWRYGGAYQFALWGQGTLVTVSS
# VL: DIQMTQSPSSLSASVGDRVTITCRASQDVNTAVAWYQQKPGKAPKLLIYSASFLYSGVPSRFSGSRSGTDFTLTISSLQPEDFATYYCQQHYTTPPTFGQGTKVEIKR
# B30: Trastuzumab HCDR3 variant ARYGGLSYYSFDL (Fab, V domains shown)
# VH: EVQLVESGGGLVQPGGSLRLSCAASGFNIKDTYIHWVRQAPGKGLEWVARIYPTNGYTRYADSVKGRFTISADTSKNTAYLQMNSLRAEDTAVYYCARYGGLSYYSFDLWGQGTLVTVSS
# VL: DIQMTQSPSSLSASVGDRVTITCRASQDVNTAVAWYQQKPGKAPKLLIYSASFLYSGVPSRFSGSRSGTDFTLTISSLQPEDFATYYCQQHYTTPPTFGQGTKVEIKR
# B31: Trastuzumab HCDR3 variant ARWGGFGYYYFDY (Fab, V domains shown)
# VH: EVQLVESGGGLVQPGGSLRLSCAASGFNIKDTYIHWVRQAPGKGLEWVARIYPTNGYTRYADSVKGRFTISADTSKNTAYLQMNSLRAEDTAVYYCARWGGFGYYYFDYWGQGTLVTVSS
# VL: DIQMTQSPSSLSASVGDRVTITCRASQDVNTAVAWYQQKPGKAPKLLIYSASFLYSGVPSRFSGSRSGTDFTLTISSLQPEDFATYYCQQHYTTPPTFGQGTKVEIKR
# Target: human epidermal growth factor receptor 2 (HER2) extracellular domain (human, UniProt P04626 23-629)
# Assay: SPR
Binder,Kd,log(KD (M))
B1,42.5 nM,-7.37 log(M)
B2,116 nM,-6.94 log(M)
B3,42.1 nM,-7.38 log(M)
B4,38 nM,-7.42 log(M)
B5,135 nM,-6.87 log(M)
B6,133 nM,-6.88 log(M)
B7,33.8 nM,-7.47 log(M)
B8,40 nM,-7.4 log(M)
B9,45.1 nM,-7.35 log(M)
B10,30.9 nM,-7.51 log(M)
B11,226 nM,-6.65 log(M)
B12,40.6 nM,-7.39 log(M)
B13,88.1 nM,-7.05 log(M)
B14,67.4 nM,-7.17 log(M)
B15,31.4 nM,-7.5 log(M)
B16,29.7 nM,-7.53 log(M)

Binder,Kd,log(KD (M))
B17,35.8 nM,-7.45 log(M)
B18,65.6 nM,-7.18 log(M)
B19,27.9 nM,-7.55 log(M)
B20,32.8 nM,-7.48 log(M)
B21,42.9 nM,-7.37 log(M)
B22,99 nM,-7 log(M)
B23,71.8 nM,-7.14 log(M)
B24,40.1 nM,-7.4 log(M)
B25,48.3 nM,-7.32 log(M)
B26,97.3 nM,-7.01 log(M)
B27,28 nM,-7.55 log(M)
B28,223 nM,-6.65 log(M)
B29,231 nM,-6.64 log(M)
B30,58.1 nM,-7.24 log(M)
B31,31 nM,-7.51 log(M)

# From patent US20250218531A1 (ABSCI, published 2025)
